The values that follow come from patent publication US20240016956A1.

The test concerns the target AAV9 capsid (of the vector AAV9.CAG.GFP / AAV9 test virus) (AAV9). Nature of the test: cell-based or functional assay.

Several values for one entry are separate records, joined by “and”; a condition that tells them apart may be missing. Equal values may be shown once.

For “IVIG (intravenous immunoglobulin), a purified mix of IgG obtained from thousands of healthy donors”, the AAV9 NAb50 Titer in HEK293 cells (fresh IVIG sample) (reciprocal dilution) was 160 and 320.
